Source: the Immune Epitope Database (IEDB)
Each block holds one sequence with its values, some of them ahead of it.

Key:
HLA-A*02:16 = assay: IEDB peptide-MHC binding, purified MHC/direct/fluorescence; filed as Kd, often an IC50 or EC50 that approximates it; ≥ and ≤ were set here for values at or beyond the usual limits of such assays
HLA-A*02:19 = assay: as above
HLA-A*02:11 = assay: as above
HLA-A*23:01 = assay: as above
HLA-A*68:02 = assay: as above
HLA-A*02:03 = assay: as above
HLA-A*24:03 = assay: as above
HLA-A*11:01 = assay: as above
HLA-A*02:12 = assay: as above
HLA-B*18:01 = assay: IEDB peptide-MHC binding, purified MHC/competitive/fluorescence; filed as Kd, often an IC50 or EC50 that approximates it; ≥ and ≤ were set here for values at or beyond the usual limits of such assays
HLA-A*02:01 = assay: as above
HLA-B*51:01 = assay: as above
HLA-B*57:01 = assay: as above
HLA-B*39:01 = assay: as above
HLA-A*26:01 = assay: as above
HLA-A*69:01 = assay: as above
HLA-B*27:03 = assay: as above
HLA-B*46:01 = assay: as above
HLA-A*31:01 = assay: as above
HLA-A*03:01 = assay: IEDB peptide-MHC binding, purified MHC/direct/fluorescence; filed as Kd, often an IC50 or EC50 that approximates it; ≥ and ≤ were set here for values at or beyond the usual limits of such assays
HLA-A*29:02 = assay: as above; conditions: source organism: Encephalitozoon cuniculi GB-M1
HLA-B*15:03 = assay: IEDB peptide-MHC binding, purified MHC/competitive/radioactivity; filed as Kd, often an IC50 or EC50 that approximates it; ≥ and ≤ were set here for values at or beyond the usual limits of such assays; conditions: source organism: Vaccinia virus WR
HLA-B*15:01 = assay: as above; conditions: source organism: Vaccinia virus WR
HLA-B*15:17 = assay: IEDB peptide-MHC binding, purified MHC/competitive/fluorescence; filed as Kd, often an IC50 or EC50 that approximates it; ≥ and ≤ were set here for values at or beyond the usual limits of such assays; conditions: source organism: Toxoplasma gondii
[1] = source organism: Vibrio vulnificus YJ016
[2] = source organism: dengue virus type 1
[3] = source organism: Encephalitozoon cuniculi GB-M1
[4] = source organism: Toxoplasma gondii

Sequence: TSCAPMMQK
Kd (HLA-A*02:16; [1]): ≥ 20 µM
Kd (HLA-A*02:19; [1]): ≥ 20 µM
Kd (HLA-A*02:11; [1]): ≥ 20 µM
Kd (HLA-A*23:01; [1]): ≥ 20 µM
Kd (HLA-A*68:02; [1]): ≥ 20 µM
Kd (HLA-A*02:03; [1]): ≥ 20 µM
Kd (HLA-A*24:03; [1]): ≥ 20 µM
Kd (HLA-A*11:01; [1]): 0.006 µM
Kd (HLA-A*02:12; [1]): ≥ 20 µM
Kd (HLA-B*18:01; [1]): ≥ 20 µM
Kd (HLA-A*02:01; [1]): ≥ 20 µM
Kd (HLA-B*51:01; [1]): ≥ 20 µM
Kd (HLA-B*57:01; [1]): ≥ 20 µM
Kd (HLA-B*39:01; [1]): ≥ 20 µM
Kd (HLA-A*26:01; [1]): ≥ 20 µM
Kd (HLA-A*69:01; [1]): ≥ 20 µM
Kd (HLA-B*27:03; [1]): ≥ 20 µM
Kd (HLA-B*46:01; [1]): ≥ 20 µM

Sequence: SSADLSLEK
Kd (HLA-A*11:01; [2]): 0.0027 µM
Kd (HLA-A*31:01; [2]): ≥ 20 µM

Sequence: GVALRSTYR
Kd (HLA-A*03:01; source organism: Mycobacterium tuberculosis): 1.81 µM
Kd (HLA-A*31:01; source organism: Mycobacterium tuberculosis H37Ra): 0.0093 µM

Kd (HLA-A*02:16; [3]): ≥ 20 µM
Kd (HLA-A*03:01; [3]): ≥ 20 µM
Kd (HLA-A*02:19; [3]): ≥ 20 µM
Kd (HLA-A*02:11; [3]): ≥ 20 µM
Kd (HLA-A*23:01; [3]): ≥ 20 µM
Kd (HLA-A*02:03; [3]): ≥ 20 µM
Kd (HLA-A*29:02): ≥ 20 µM
Kd (HLA-A*24:03; [3]): ≥ 20 µM
Kd (HLA-A*11:01; [3]): ≥ 20 µM
Kd (HLA-A*02:12; [3]): ≥ 20 µM
Kd (HLA-B*18:01; [3]): ≥ 20 µM
Kd (HLA-A*02:01; [3]): ≥ 20 µM
Kd (HLA-B*51:01; [3]): ≥ 20 µM
Kd (HLA-B*57:01; [3]): ≥ 20 µM
Kd (HLA-B*39:01; [3]): ≥ 20 µM
Kd (HLA-A*26:01; [3]): ≥ 20 µM
Kd (HLA-A*69:01; [3]): ≥ 20 µM
Kd (HLA-B*27:03; [3]): ≥ 20 µM
Kd (HLA-B*46:01; [3]): ≥ 20 µM
Sequence: EAYCALLCK

Sequence: LATFTVNIF
Kd (HLA-B*15:03): 0.0351 µM

Sequence: FMAYTTSHI
Kd (HLA-B*15:03): 0.00758 µM
Kd (HLA-B*15:01): 0.132 µM

Sequence: VSSHKGWAK
Kd (HLA-A*02:16; [4]): ≥ 20 µM
Kd (HLA-A*03:01; [4]): ≥ 20 µM
Kd (HLA-A*02:19; [4]): ≥ 20 µM
Kd (HLA-A*02:11; [4]): ≥ 20 µM
Kd (HLA-A*23:01; [4]): ≥ 20 µM
Kd (HLA-A*68:02; [4]): ≥ 20 µM
Kd (HLA-A*02:03; [4]): ≥ 20 µM
Kd (HLA-A*24:03; [4]): ≥ 20 µM
Kd (HLA-A*11:01; [4]): 0.002 µM
Kd (HLA-A*02:12; [4]): ≥ 20 µM
Kd (HLA-A*02:01; [4]): ≥ 20 µM
Kd (HLA-B*51:01; [4]): ≥ 20 µM
Kd (HLA-B*57:01; [4]): ≥ 20 µM
Kd (HLA-B*39:01; [4]): ≥ 20 µM
Kd (HLA-A*26:01; [4]): ≥ 20 µM
Kd (HLA-A*69:01; [4]): ≥ 20 µM
Kd (HLA-B*15:17): ≥ 20 µM
Kd (HLA-B*27:03; [4]): ≥ 20 µM
Kd (HLA-B*46:01; [4]): ≥ 20 µM
